Experimental data: EP4692114A1, “CALCITONIN ANALOGUE, AND DERIVATIVE THEREOF AND USE THEREOF” (Hangzhou Sciwind Biosciences Co., Ltd., priority 2023, dated 2024)
*1 amine or outer side, *2 acyl side, *3 side chain or, on linkers, in order; H or OH if unused. Primed or numbered codes have the meaning given here. The star is where a group is joined. C20 diacid = O=C(O)CCCCCCCCCCCCCCCCCCC(=O)*; γGlu = O=C(O)[C@H](CCC(=O)[*:2])N[*:1]; Inp′ = not defined here; AEEA = NCCOCCOCC(=O)O

T1: human amylin receptor (AMY3) on CHO-K1/Gal5/AMY3 cells (human, UniProt P30988 25-474; O60896 24-148)
T1 sequence (looked up) 1: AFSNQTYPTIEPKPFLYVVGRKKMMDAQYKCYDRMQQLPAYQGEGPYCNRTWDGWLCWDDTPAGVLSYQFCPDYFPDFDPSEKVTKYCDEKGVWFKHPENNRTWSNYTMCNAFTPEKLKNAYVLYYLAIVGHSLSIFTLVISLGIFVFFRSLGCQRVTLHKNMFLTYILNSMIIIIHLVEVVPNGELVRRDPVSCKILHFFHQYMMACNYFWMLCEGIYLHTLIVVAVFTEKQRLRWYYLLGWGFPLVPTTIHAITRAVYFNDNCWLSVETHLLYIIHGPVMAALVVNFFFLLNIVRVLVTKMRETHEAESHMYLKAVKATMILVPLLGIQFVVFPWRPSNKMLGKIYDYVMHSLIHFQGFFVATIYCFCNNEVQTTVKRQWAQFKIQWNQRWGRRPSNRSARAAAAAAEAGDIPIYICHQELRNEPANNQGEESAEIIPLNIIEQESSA
T1 sequence (looked up) 2: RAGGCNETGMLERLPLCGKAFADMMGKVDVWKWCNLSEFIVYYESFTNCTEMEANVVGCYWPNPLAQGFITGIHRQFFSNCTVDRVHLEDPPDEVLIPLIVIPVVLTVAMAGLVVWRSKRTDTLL

B1: calcitonin derivative M63 (peptide)
peptide: {C20 diacid-γGlu-AEEA-AEEA-AEEA-AEEA}-ASQLSTAVLGRLSEELHRLQDYPRTDVGSGSP-NH2
SMILES: CC(C)C[C@H](NC(=O)[C@H](CCCNC(=N)N)NC(=O)CNC(=O)[C@H](CC(C)C)NC(=O)[C@@H](NC(=O)[C@H](C)NC(=O)[C@@H](NC(=O)[C@H](CO)NC(=O)[C@H](CC(C)C)NC(=O)[C@H](CCC(N)=O)NC(=O)[C@H](CO)NC(=O)[C@H](C)NC(=O)COCCOCCNC(=O)COCCOCCNC(=O)COCCOCCNC(=O)COCCOCCNC(=O)CC[C@H](NC(=O)CCCCCCCCCCCCCCCCCCC(=O)O)C(=O)O)[C@@H](C)O)C(C)C)C(=O)N[C@@H](CO)C(=O)N[C@@H](CCC(=O)O)C(=O)N[C@@H](CCC(=O)O)C(=O)N[C@@H](CC(C)C)C(=O)N[C@@H](Cc1c[nH]cn1)C(=O)N[C@@H](CCCNC(=N)N)C(=O)N[C@@H](CC(C)C)C(=O)N[C@@H](CCC(N)=O)C(=O)N[C@@H](CC(=O)O)C(=O)N[C@@H](Cc1ccc(O)cc1)C(=O)N1CCC[C@H]1C(=O)N[C@@H](CCCNC(=N)N)C(=O)N[C@H](C(=O)N[C@@H](CC(=O)O)C(=O)N[C@H](C(=O)NCC(=O)N[C@@H](CO)C(=O)NCC(=O)N[C@@H](CO)C(=O)N1CCC[C@H]1C(N)=O)C(C)C)[C@@H](C)O
B2: calcitonin derivative M47 (peptide)
peptide: {C20 diacid-Inp′}-ASQLSTAVLGRLSDELHRLQDYPRTDVGSGSP-NH2
B3: calcitonin derivative M15 (peptide)
peptide: {C20 diacid-γGlu}-ASQLSTAVLGRLSQELHRLQDYPRTQVGSGSP-NH2
SMILES: CC(C)C[C@H](NC(=O)[C@H](CCCNC(=N)N)NC(=O)CNC(=O)[C@H](CC(C)C)NC(=O)[C@@H](NC(=O)[C@H](C)NC(=O)[C@@H](NC(=O)[C@H](CO)NC(=O)[C@H](CC(C)C)NC(=O)[C@H](CCC(N)=O)NC(=O)[C@H](CO)NC(=O)[C@H](C)NC(=O)CC[C@H](NC(=O)CCCCCCCCCCCCCCCCCCC(=O)O)C(=O)O)[C@@H](C)O)C(C)C)C(=O)N[C@@H](CO)C(=O)N[C@@H](CCC(N)=O)C(=O)N[C@@H](CCC(=O)O)C(=O)N[C@@H](CC(C)C)C(=O)N[C@@H](Cc1c[nH]cn1)C(=O)N[C@@H](CCCNC(=N)N)C(=O)N[C@@H](CC(C)C)C(=O)N[C@@H](CCC(N)=O)C(=O)N[C@@H](CC(=O)O)C(=O)N[C@@H](Cc1ccc(O)cc1)C(=O)N1CCC[C@H]1C(=O)N[C@@H](CCCNC(=N)N)C(=O)N[C@H](C(=O)N[C@@H](CCC(N)=O)C(=O)N[C@H](C(=O)NCC(=O)N[C@@H](CO)C(=O)NCC(=O)N[C@@H](CO)C(=O)N1CCC[C@H]1C(N)=O)C(C)C)[C@@H](C)O
B4: calcitonin derivative M29 (peptide)
peptide: {C20 diacid-γGlu}-ASQLSTSVLGRLSQELHRLQDYPRTDVGSGSP-NH2
SMILES: CC(C)C[C@H](NC(=O)[C@H](CCCNC(=N)N)NC(=O)CNC(=O)[C@H](CC(C)C)NC(=O)[C@@H](NC(=O)[C@H](CO)NC(=O)[C@@H](NC(=O)[C@H](CO)NC(=O)[C@H](CC(C)C)NC(=O)[C@H](CCC(N)=O)NC(=O)[C@H](CO)NC(=O)[C@H](C)NC(=O)CC[C@H](NC(=O)CCCCCCCCCCCCCCCCCCC(=O)O)C(=O)O)[C@@H](C)O)C(C)C)C(=O)N[C@@H](CO)C(=O)N[C@@H](CCC(N)=O)C(=O)N[C@@H](CCC(=O)O)C(=O)N[C@@H](CC(C)C)C(=O)N[C@@H](Cc1c[nH]cn1)C(=O)N[C@@H](CCCNC(=N)N)C(=O)N[C@@H](CC(C)C)C(=O)N[C@@H](CCC(N)=O)C(=O)N[C@@H](CC(=O)O)C(=O)N[C@@H](Cc1ccc(O)cc1)C(=O)N1CCC[C@H]1C(=O)N[C@@H](CCCNC(=N)N)C(=O)N[C@H](C(=O)N[C@@H](CC(=O)O)C(=O)N[C@H](C(=O)NCC(=O)N[C@@H](CO)C(=O)NCC(=O)N[C@@H](CO)C(=O)N1CCC[C@H]1C(N)=O)C(C)C)[C@@H](C)O

Target: T1, human amylin receptor (AMY3) on …
Experiment: cell-based or functional assay

EC50/nM, CRE-luciferase in amylin receptor/CRE-luc CHO cells [nM]	Binder
0.037	B1
0.082	B2
0.016	B3
0.017	B4
